Results taken from patent US20120282700A1.

Experiments:
[1] = target: M13/HRP antibody; assay: depletion of M13/HRP antibody (0.45-9.0 µg/mL) from the supernatant by pSDLBA3b cells, TMB read-out, Langmuir linear regression
[2] = target: Alexa Fluor 488 conjugated rabbit anti-mouse antibody (Invitrogen; A-11059); assay: flow cytometry with Alexa Fluor 488 rabbit anti-mouse antibody after 30 min in simulated gastric juice (pepsin, pH 2.0 or 4.0), against incubation at pH 7.0
[3] = target: Alexa Fluor 488 conjugated rabbit anti-mouse antibody (Invitrogen; A-11059); assay: flow cytometry, 2 µg Alexa Fluor 488 rabbit anti-mouse antibody on Sdlba3b-expressing L. lactis cells; control cells (pNZ8148) 2.26

Substance: Sdlba3b fusion protein (encoded by pSDLBA3b), immunoglobulin-binding B domain displayed on the surface of L. lactis (from UniProt P38507 212-269)
- maximum amount of adsorbed antibody (µg per 1×10^8 cells) [1]: 0.146
- loss of fluorescence intensity [2]: < 14%
- mean fluorescence intensity [3]: 151
